Legend:
BMMs = experiment: Real-time PCR of osteoclastogenesis mRNA in RANKL-induced BMMs; format: cell-based, mouse; conditions: mRANKL-MT3-induced BMMs compared with mRANKL-WT induced BMMs
Protocol: Meanwhile, for Real-time PCR, BMM cells were incubated with 30 ng/mL M-CSF and 75 ng/mL sRANKL (R&D Systems) or isolated RANKL in 6-well plates. Total RNA was extracted using TRIzol reagent (Invitrogen, Thermo Fisher Scientific, Inc.). The cDNA was synthesized from 2 μg total RNA using ReverTra Ace qPCR RT Master Mix (TOYOBO, Osaka, Japan). Real-time PCR was conducted on a CFX Connect RealTime PCR Detection System (Bio-Rad, Hercules, Calif., USA) in a reaction mixture (total volume, 20 μL) containing IQ SYBR Green Supermix (Bio-Rad), 10 pmol forward primer, 10 pmol reverse primer, and 1 μg cDNA.

RANKL = experiment: Western blot of serum for antibodies after mtRANKL immunization; format: in vivo, mouse; conditions: mice immunized 3 times with 0.2 mg mtRANKL with aluminum hydroxide adjuvant
Protocol: Proteins were separated by SDS-PAGE and electropermeated into a nitrocellulose membrane (Bio-Rad). After blocking the membrane with 5% (weight/volume) skim milk in TBST [10 mM Tris (pH 7.5), 150 mM NaCl, 0.1% (vol/vol) Tween 20], each mouse serum for primary antibody in the blocking solution was examined. The membrane was washed three times with Tris buffered saline. […] peroxidase (HRP)-conjugated secondary antibody was diluted 1:5000 with TBST in 1% (wt/vol) skim milk powder. ECL_system (Amersham Pharmacia Biotech) was used as the membrane.
17-week-old […] BALB/c mice were equally divided into 3 groups. The group was divided into a negative control group in which PBS was intraperitoneally injected, a group in which only wtRANKL was injected, and a group in which wtRANKL was injected after immunization with mtRANKL for 52 days. mtRANKL was injected after mixing with an aluminum hydroxide adjuvant. The immunization process started with 1st immunization of mtRANKL at 52 days, 2nd immunization at 39 days, 3rd immunization at 14 days each before injection of wtRANKL, and a total of 3 immunizations was performed. The amount of mtRANKL was 0.2 mg per mouse.
To determine whether antibodies were produced due to mtRANKL immunization, Western blot of Reference Example 4 was performed on the collected serum, and the results are shown in FIG. 6A.

B1: mRANKL-MT3: mouse RANKL mutant: K180R, D189I, R190K, H223F, H224Y; nucleic acid SEQ ID NO: 3 (protein, UniProt O35235 158-316, looked up, variant K180R D189I R190K H223F H224Y)
chain: KPEAQPFAHLTINAASIPSGSHRVTLSSWYHIKGWAKISNMTLSNGKLRVNQDGFYYLYANICFRFYETSGSVPTDYLQLMVYVVKTSIKIPSSHNLMKGGSTKNWSGNSEFHFYSINVGGFFKLRAGEEISIQVSNPSLLDPDQDATYFGAFKVQDID
In the case of B1, the “TRAP, NFATc1, and OSCAR mRNA expression” value (BMMs) is reported as “down-regulated” and the “antibodies in serum (Western blot)” value (RANKL) is reported as “antibodies were detected”.

— patent US20210403586A1, “MUTANT OF RANKL AND PHARMACEUTICAL COMPOSITION COMPRISING SAME FOR PREVENTING OR TREATING OSTEOPOROSIS” (INDUSTRY-ACADEMIC COOPERATION FOUNDATION CHOSUN UNIVERSITY, priority 2018, published 2021)
